The text below walks through data of publication PMC5360526 (Hepatology (Baltimore, Md.), 2017).

In this assay the target is Recombinant human MATα1 (human, UniProt Q00266 1-395). Description: pull-down.
Sequence of Recombinant human MATα1 (Q00266 whole entry): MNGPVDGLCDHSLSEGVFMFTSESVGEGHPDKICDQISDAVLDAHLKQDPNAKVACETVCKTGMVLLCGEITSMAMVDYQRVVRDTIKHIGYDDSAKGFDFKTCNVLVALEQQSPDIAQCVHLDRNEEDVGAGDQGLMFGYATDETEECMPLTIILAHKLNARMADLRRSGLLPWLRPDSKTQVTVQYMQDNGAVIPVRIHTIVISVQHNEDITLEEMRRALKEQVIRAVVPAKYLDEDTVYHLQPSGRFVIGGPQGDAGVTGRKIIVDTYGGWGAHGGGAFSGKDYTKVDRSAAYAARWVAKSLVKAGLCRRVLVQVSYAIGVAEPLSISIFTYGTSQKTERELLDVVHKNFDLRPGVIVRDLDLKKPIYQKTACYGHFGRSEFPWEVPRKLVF

B1: Recombinant human PHB1 (natural protein, UniProt P35232 1-272, looked up)
chain: MAAKVFESIGKFGLALAVAGGVVNSALYNVDAGHRAVIFDRFRGVQDIVVGEGTHFLIPWVQKPIIFDCRSRPRNVPVITGSKDLQNVNITLRILFRPVASQLPRIFTSIGEDYDERVLPSITTEILKSVVARFDAGELITQRELVSRQVSDDLTERAATFGLILDDVSLTHLTFGKEFTEAVEAKQVAQQEAERARFVVEKAEQQKKAAIISAEGDSKAAELIANSLATAGDGLIELRKLEAAEDIAYQLSRSRNITYLPAGQSVLLQLPQ
With B1, the binding result is reported as “binds”.
